The assay has as its target T1, human Tim-3 (T cell Immunoglobulin- and Mucin domain-containing molecule 3) (human, UniProt Q8TDQ0 22-301).
T1 sequence (looked up): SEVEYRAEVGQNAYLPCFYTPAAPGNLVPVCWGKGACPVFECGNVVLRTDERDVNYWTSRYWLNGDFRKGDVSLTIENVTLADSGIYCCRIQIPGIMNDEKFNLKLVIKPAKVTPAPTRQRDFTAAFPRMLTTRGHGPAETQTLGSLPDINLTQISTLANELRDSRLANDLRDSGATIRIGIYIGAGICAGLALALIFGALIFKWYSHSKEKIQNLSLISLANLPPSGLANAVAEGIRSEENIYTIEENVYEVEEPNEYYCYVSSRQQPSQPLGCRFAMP
Kind of assay: cell-based or functional assay.

B1: TIM3 TCB molecule: anti-Tim-3 / anti-CD3 T cell bispecific (TCB) molecule, "2+1 IgG CrossFab, inverted" with charge modifications (VH/VL exchange in CD3 … (bispecific antibody)
heavy 1: QVTLKESGPGILQPSQTLRLTCSFSGFSLSTSGMSVGWIRQPSGKGLEWLAHIWLNDDVFFNPALKSRLTISKDTSNNQVFLQIASVVTADTATYYCVRANGYLYALDYWGQGTSVTVSSASTKGPSVFPLAPSSKSTSGGTAALGCLVEDYFPEPVTVSWNSGALTSGVHTFPAVLQSSGLYSLSSVVTVPSSSLGTQTYICNVNHKPSNTKVDEKVEPKSCDKTHTCPPCPAPEAAGGPSVFLFPPKPKDTLMISRTPEVTCVVVDVSHEDPEVKFNWYVDGVEVHNAKTKPREEQYNSTYRVVSVLTVLHQDWLNGKEYKCKVSNKALGAPIEKTISKAKGQPREPQVCTLPPSRDELTKNQVSLSCAVKGFYPSDIAVEWESNGQPENNYKTTPPVLDSDGSFFLVSKLTVDKSRWQQGNVFSCSVMHEALHNHYTQKSLSLSP
heavy 2: not shown
light 1: EVQLLESGGGLVQPGGSLRLSCAASGFTFSTYAMNWVRQAPGKGLEWVSRIRSKYNNYATYYADSVKGRFTISRDDSKNTLYLQMNSLRAEDTAVYYCVRHGNFGNSYVSWFAYWGQGTLVTVSSASVAAPSVFIFPPSDEQLKSGTASVVCLLNNFYPREAKVQWKVDNALQSGNSQESVTEQDSKDSTYSLSSTLTLSKADYEKHKVYACEVTHQGLSSPVTKSFNRGEC
light 2: QIVLTQSPAIMSASPGQKVTITCSASSSVNYTQWYQQKLGSSPKLWIYDAFKLAPGVPARFSGSGTGTSYSLTISSMEAEDAASYFCHQWSSYPWTFGGGTKLEIKRTVAAPSVFIFPPSDRKLKSGTASVVCLLNNFYPREAKVQWKVDNALQSGNSQESVTEQDSKDSTYSLSSTLTLSKADYEKHKVYACEVTHQGLSSPVTKSFNRGEC
Take B1: the “Cytotoxic activity TCB (LDH), IC50 pM, CMK cells (AML)” value was found to be 300 pM; the “Cytotoxic activity TCB (LDH), IC50 pM, EOL-1* cells (AML; 24h pre-treated with 10 ng/ml PMA)” value worked out at 300 pM; the “Cytotoxic activity TCB (LDH), IC50 pM, KG-1 cells (AML)” value amounted to 1000 pM; the “Cytotoxic activity TCB (LDH), IC50 pM, Karpas-299 cells (NHTCL)” value amounted to 500 pM. Besides, the “Cytotoxic activity TCB (LDH), IC50 pM, Kasumi-1 cells (AML)” value came out at 3000 pM; the “Cytotoxic activity TCB (LDH), IC50 pM, Pfeiffer cells (NHBCL)” value is 10 pM; the “Cytotoxic activity TCB (LDH), IC50 pM, RPMI-8226 cells (MM)” value amounted to 100 pM; the “Cytotoxic activity TCB (LDH), IC50 pM, SR cells (LCIBL)” value came to 100 pM. Further, the “EC50 of tumor cell lysis, 24 h LDH release, CHO K1 cells stably expressing human TIM-3, thawed expanded T cells, E:T 1:1” value turned out to be 0.003 nM and the “EC50 of tumor cell lysis, 24 h LDH release, Pfeiffer cells, thawed expanded T cells, E:T 1:1” value was determined as 0.06 nM.

These data come from patent WO2017055393A1 (dated 2017).
